Measurements from the nanobody polyreactivity screen of Harvey et al. (2022).

experiment: yeast display, Sf9 membrane polyspecificity reagent, FACS + sequencing; frameworks hold sequencing errors
Outline: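 Synthetic nanobody libraries on Saccharomyces cerevisiae BJ5465 were galactose-induced for 36–48 hours, stained 1 hour at 4 °C with 10% biotinylated, detergent-solubilized Sf9 membrane reagent and enriched on streptavidin microbeads. FACS then separated cells into low and high (top ~1%) gates by anti-HA (expression) and streptavidin (reagent binding) fluorescence. Genes were colony-PCR amplified, MiSeq 2 × 250 sequenced and CDR-length filtered. A clone's polyreactivity label is that of its gate of origin.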

Sequence | polyreactivity (PSR sort gate)
QVQLVESGGGLVQAVGSLRLSCAPSGRTLNNYTMGWNRPAPGKERELVAAIRWSTGSTYYADSVKGRFTISRDNSKNTVYLQMNSLKPEDTAVYYCNAYRYQWAQSTEYDYWGQGTQVTVSS | high polyreactivity
QVQLVESGGGLVQAVGSLRLSCAPSGSLFPGYAMGWYRQAPGKERELVAAITFSGGSTYYADSVKGRFTISRDYAKQSVYLPMNSLKPEDTAVYYCAAPGWYGGYPSYYYWGQGTQVTVSS | low polyreactivity
QVQLVESGGGLVQAVGSLRLSCAPSGTTFTHYAMGWYRKAPGKERELVAAISWSGGSTYYADSVKGRFTISRDNAKNTVYLQMNSLKQEDCAVYYCKTYGVSYYGSGYYWGQGTQVTVSS | high polyreactivity
QVQLVESGGGLVQAVRSLRLSSAASGLTFGRNAMGWYRQAPGKERELVAAISRSGGRTSYADSVKGRFTISRDNAKNTVYLQMNSLKPEDTAVYYCAARSDVYTHDYWGQGTQVTVSS | high polyreactivity
QVQLVESGGGLVQEGGILRLSCAASGRTFTWYAMEWYRQAPGKERELVAAISFSGGSTYYADSVKGRFTISRDNAKNTVYLQMNSLKPEDSAVYYCARASGDAWEGPRLDYWGQGTQVTVSS | low polyreactivity
QVQLVESGGGLVQEGGSHRLSCAASASTFWSYTMGWYRQAPGKERELVAAISPSGGSTSYADSVKGRFTISRDHAKNTVYLQMNSLKPEDTAVYYGAADDRYGSRYSYWGHGTQVTVSS | high polyreactivity
QVQLVESGGGLVQEGGSIRLSCDASGFIFDVYAIGWYRTAAGKERELVDAISSVGSTYYADSVKGRFTISRDNATNTVYLQMNSLKPEDTAVYYCADVRFYTYNYWGQGTQVTVSS | low polyreactivity
QVQLVESGGGLVQEGGSLRFSCAASGSTFHSYAMGWYRQAPGKERELVAAISTSGGTTYYADSVKGRFTISRDNAKNTVYLQMNSLKPEDTAVYYCAARRVTSPFGTDSWGQGTQVTVSS | low polyreactivity
QVQLVESGGGLVQEGGSLRLICAASGRTFGTNAMGWYRQAPAKERELVAGINYSDGSTYYADSVKGRFTITRDNAKNTVYLQMNSMKPEDTAVYYCAADPGWAWWELNYWGQGTQVTVSS | low polyreactivity
QVQLVESGGGLVQEGGSLRLICAASGRTFYINDMGWYRQAPGKEREFVAAITWSGGSTYYADSVKGRFTISRDNAKNTVYLQMNSLKPEDTAVYYCARPYRGSPRYYYWGQGTQVTVSS | high polyreactivity
QVQLVESGGGLVQEGGSLRLICAASGSTFGVNAMGWYRQAPGKERELVAAISSSGYSTYADSVKGRFTISRDNAKNTVYLQMNSLKPEDTAVYYCNKTTLLTVEYDYWGQGTQVTVSS | low polyreactivity
QVQLVESGGGLVQEGGSLRLRCAASGSIFPYNAMGWYRQAPGKERELVAAISSTGGRTYYADSVKGRFTISRDNAKNTVYLQMNSLKPEDTAVYYCAARLYDKPGFYSWGEGTQVTVSS | high polyreactivity
QVQLVESGGGLVQEGGSLRLSCAASGFIFRGNGMGWYRQAPGKERELVAAIDSTDSKNYADSVKGRFTISRDNAKNTVYLQMNSLKPEDTAVYYCAAGVSWYGPYDYLWFYAFDYWGQGTQVTVSS | low polyreactivity
QVQLVESGGGLVQEGGSLRLSCAASGFILVNYAMGWYRQAPGKEREFVAAISGSGTRTYYADSVKGRFTISRDNAKNTVYLQMNSLKPEDTAVYYCAARVGYRKLYYYWGQGTQVTVSS | high polyreactivity
QVQLVESGGGLVQEGGSLRLSCAASGFTFDSNAMGWYRQAPGKERELVAAISTGGSTYYADSVKGRFTISRDNAKNTVYLQMNSLKPEDTAVYYCARDPPYPDTWYGYWGQGTQVTVSS | low polyreactivity
QVQLVESGGGLVQEGGSLRLSCAASGFTFRANAMGWYRQAPGKERELVAVITGSGRTYYSDSVKGRFTISRDNAKNTVYLQMNRLKPEYTAVYYCAARAAYRVSSAGYDSLGQGTQVTVSS | high polyreactivity
QVQLVESGGGLVQEGGSLRLSCAASGFTFRWYAMGWYRQPPRKERELFAVISSGGRTYYADSVKGRFTISRDNAKNTVYLEKNSLKPEDTAVYSCAAEFTDHYPDYWGYPLYDYWGQGTQVTVSS | high polyreactivity
QVQLVESGGGLVQEGGSLRLSCAASGFTIFQYAMGWYRQAPGKERELVATITSAGSTNYADSVKGRFTISLDNAKNTVYLQMNSLIPEDTAVYYCNTKKLPYAEGYWGQGTQVSVSS | low polyreactivity
QVQLVESGGGLVQEGGSLRLSCAASGGTFRWYTMGWYRQAPGKERELVAAISSTGSTYYADSVKGRFTISRDNAKNTVYLQMNSLKPEDTAVYYCNASYNGKGSWDLDYWGQGTQVTVSS | high polyreactivity
QVQLVESGGGLVQEGGSLRLSCAASGGTFWLYTMGWYRQAPGKERELVAAITKSGGSTYYADSVKGRFTISRDNAKNTVYLQMNSLKPEDTAVYDCAARYSVYRDGYYWGQGTQVTVSS | high polyreactivity
QVQLVESGGGLVQEGGSLRLSCAASGGTFYVNDMGWYRQAPGKERELVATITSGDSTNYADSVKGRFTISRDNAKNTVYLQRNCLKPEDTAVYYCNARGDVIVTPPKFSFNYVYWGQGTQVTVSS | low polyreactivity
QVQLVESGGGLVQEGGSLRLSCAASGIIFLENAMGWYRQAPGKERELVAGISSGGNTNYADSVKARFTISRDNAKNTVYLHMNSLKPEDTAVYYCNARCHRAVPGDELGYWGQGTQLTVSS | low polyreactivity

Sequence | polyreactivity (PSR sort gate)
QVQLVESGGGLVQEGGSLRLSCAASGIIFQRNDMGWYRQAPGKERELVANIRDGGITYADSVKGRFTISRDNAKNTVYLQMNSLKPEDTAVYYCARDDTSPGYGDQSSNAAYYYWGQGTQVTVSS | low polyreactivity
QVQLVESGGGLVQEGGSLRLSCAASGIIFSRYAMGWYRPAPGKERELVAAITRSGGDTYYADSVKGRFTISRDNAKNTVYLQMNSLNPEDTAVYYCAAERTWYPWVATGYYWGQGTQVTVSS | low polyreactivity
QVQLVESGGGLVQEGGSLRLSCAASGINFNVNALGWYKQAPGKERELVARITTSGGSTSYADSVKGRFTISRDNAKNTVYLQMNSLKPDDTAVYYCAADRARYYSEYDYWGQGTQVNVSS | low polyreactivity
QVQLVESGGGLVQEGGSLRLSCAASGLISQRNVMGWYRQAPGKERELVARISTSSSGTYYADSVKGRFTISRDNAKNTFYLHMYSLKPEYTAVYYCAVRYRGGAARQIYDYWGQGTQVTVSS | high polyreactivity
QVQLVESGGGLVQEGGSLRLSCAASGRIFSRYVMGWYRQAPGKERELVAAITGSGGSTYYADSVKGRFTISRDNAKNTVYLQMNSLKPEDTADYYCAVVSRANSYRYNYWGQGTQVTVSS | high polyreactivity
QVQLVESGGGLVQEGGSLRLSCAASGRIYARNAMGWYRQAPGKERDLVAAIRNSDGSTYYADSVNGRFTISRDNAKNSVYLQMNSLKPEDTAVYYCNTVPYPAYLARMDYWGQGTQVTVSS | high polyreactivity
QVQLVESGGGLVQEGGSLRLSCAASGRTFAIYTMGCYRQAPGKERELVATNSGSAGNTYYADSVKGRYTISRDNAKNTVYLQMNSLIPEDTAVYYCAARQRKSRQIVLLDYWGQGTQVTVSS | high polyreactivity
QVQLVESGGGLVQEGGSLRLSCAASGRTFWAYAMGWYRQAPGKERELVAAITTSGGSTNYADSVKGRFTISRDNAKNTVYLQMNSLKPEDTADYYCNADPTYHVVNGVAYWGQGTQVTVSS | low polyreactivity
QVQLVESGGGLVQEGGSLRLSCAASGRTFYQYAMGWYRQAPGKERELVAVINGGGSTNYADSVKGRFTISRDNAKNTVYLQMNSLIPEDTAVYYCNADDVFDFDYWGQGTQVTVSS | low polyreactivity
QVQLVESGGGLVQEGGSLRLSCAASGRTLHKNVMGWYRQAPGKERELVAAINTGGRTYYADSVKGRFTISRDNAKHTVYLQMNSLKPEDTAVYYCAKEGHVNPRPTVGGDYWGHGTQVTVSS | low polyreactivity
QVQLVESGGGLVQEGGSLRLSCAASGSIFIANAMGWYRQAPGKERELVARITRGGRTNYADSVKGRFTISRDNAKNTVYLQMNSLKPEDTAVYYCAAVYYVGFPHKYDYWGQGTQVTVSS | low polyreactivity
QVQLVESGGGLVQEGGSLRLSCAASGSIFLQYAMGWYRQAPGKERELVAGISLRGCSTYYADSVKGRFTISRDNAKNTVYVQLNSLKPEDTAVYYCAADVIVTVETHTSGPSFTEYDYWGQGTQVTVSS | low polyreactivity
QVQLVESGGGLVQEGGSLRLSCAASGSIFRYYAMGWYRQAPGKERELVAVITRGGSTYYADSVKGRFTISRDNAKNTVYLQMNSLKPEDTAVYYCAAEDYVIGDSGYDYWGQGTQVTVSS | low polyreactivity
QVQLVESGGGLVQEGGSLRLSCAASGSILGRYAMGWYRQAPGKERELVAAITSSGGRTYYADSVKGRFTISRDNAKNTVYLQMNSLKREDTAVYYCNAVSWWYGYDYWGQGTQVSVSS | high polyreactivity
QVQLVESGGGLVQEGGSLRLSCAASGSILIVYAMGWYRQATGKERELVAAITRGGRTNYADSVKGRFTISRDNAKNTVYLQMNSLKPEDTAVYYCAARVLPANVKPYNYWGQGTQVTVSS | high polyreactivity
QVQLVESGGGLVQEGGSLRLSCAASGSNFKRNTMGWYRQAPGKERELVAAISASGGRTYYADSVKGRFTISRDNAKNTVYLPMNSLKPEDTAVYYCNARFRIGRSELDYWGQGTQVTVSS | low polyreactivity
QVQLVESGGGLVQEGGSLRLSCAASGSTFGGYAMGWYRQAPGKERELVAAISGSGVRTYYADSVKGRFTISRDNAKYSVYLQMNSLKPEDTAVYYCAKRVRYPGDRYYYWGQGSQVTVSS | high polyreactivity
QVQLVESGGGLVQEGGSLRLSCAASGSTFIDYAMGWYRQAPGKERELVAAITNGGNTKYADSVKGRFTISRDNAKNTVYLQMHSLKPEETAVYYGAREPSIFTPSYDYWGQGTQVTVSS | low polyreactivity
QVQLVESGGGLVQEGGSLRLSCAASGSTFSYNAMGWYRQAPGKERELVAAITSGSSTNYADSVKGRFTISRDNAKNTVYLQMNSLKPEDTAVYYCAADGYQDKYYWLETWVGYWGQGTQVTVSS | low polyreactivity
QVQLVESGGGLVQEGGSLRLSCAASGSTFVINAMGWYRQAPGKERELVADIDYRGGSTNYSDSVKGRFTISRDNAKNTVYLQMNSLKPEVTAVYYCNKRYVIRRRGYDYWGQGTQVTVSS | low polyreactivity
QVQLVESGGGLVQEGGSLRLSCAAYGSTSYRYAMGWYRQAPGKERELVAASSSSGGSTYYADSVKGRFTISRDNEKNTVYLQMNSLKPEDSAVYYCAARFYSGPGGYTMYYWGQGTQVSVSS | high polyreactivity
